These results are taken from patent US20250171542A1 (ADEPT THERAPEUTICS, published 2025).

In general, Kd refers to a measure of binding affinity in units of concentration. Higher therefore signals a looser complex. Usually koff stands for a measure of how fast the partners let go of each other. A low value points to slow dissociation. In general, kon refers to the second-order rate constant of association. The low end stands for slow association, the high end for fast association. The term IC50 denotes the concentration at which inhibition is half-maximal. High values mean a need for much substance, low ones inhibition by little substance. As a reminder, the EC50 is the concentration at which the effect is half-maximal. Read a high EC50 as weaker potency.

Experiment [1] deals with T1, human PD-L1-His (Sino Biological, Cat #10084-H08H) (human, UniProt Q9NZQ7 19-238).
T1 construct: Bought protein; also called human PD-L1 ECD-His; recombinant human PD-L1-His protein; not shown: His tag
As to the kind of experiment: BLI (Gator), antibody on HFC probe, human PD-L1-His in solution. Here is the method:
The affinity of the binding of the exemplary anti-PD-L1 antibodies of the present disclosure was determined. Assay was performed according to the protocol recommended by Gator or Gator Plus (Gator Bio Inc.). Briefly, human PD-L1-His (Sino Biological, Cat #10084-H08H) was serially diluted 4-fold, starting at 4 μg/ml. After three times of regeneration in generation buffer (Gator Bio, Cat #120012) and neutralization of HFC probe (Gator Bio, Cat #160003), 1 μg/ml of antibody to be tested in Q buffer (Gator Bio, Cat #120010) was immobilized onto HFC probe. After a baseline step, probe immobilized with antibody was dipped into antigen solutions. The association and dissociation of antigen from antibody was measured on BLI machine Gator. Affinity was calculated using Gator Bio analysis software.
Table 22 below summarizes the binding affinity to human PD-L1 using Gator.

Experiment [2] deals with T2, human PD-L1-mFc fusion protein (Sino Biological, Cat #10084-H05H) (human, UniProt Q9NZQ7 19-239).
T2 construct: Bought protein; also called human PD-L1 mouse Fc fusion protein; not shown: mouse Fc
As to the kind of experiment: competition ELISA, coated human PD-L1-mFc, competitor human PD-1-His-hFc-Biotin. As for the experimental part: Briefly, microplates were precoated with […] of human PD-L1-mFc fusion protein (Sino Biological, Cat #10084-H05H) diluted in 1×PBS (GIBCO) and incubated overnight at 4° C.; Plates were washed four times with 300 μl/well washing buffer (1×PBST, diluted from 20×PBST (Thermo Scientific) with distilled water)) and then blocked with 300 μl/well of blocking buffer (1×PBST/3% BSA) for 2 hours at RT on shaker (100 rpm). […] Plates were washed and added with 100 μl/well TMB substrate for color development at room temperature in dark for up to 10 minutes. After addition of 50 μl/well of stop solution (1N H₂SO₄), plates were read at 450 nm on a plate reader (SpectraMax M5).

Experiment [3] addresses T3, cynomolgus PD-L1-His (Sino Biological, Cat. 90251-C08H) (cynomolgus, UniProt Q9NZQ7 19-238 (human entry)).
T3 construct: Bought protein; also called Cyno PD-L1; Cynomolgus PD-L1 ECD-His; not shown: His tag
The experiment can be described thus: ELISA, coated cyno PD-L1-His. Here is the method: (§1) Briefly, Maxisorp plates (Nunc) were coated with 100 ul/well of 0.5 μg/ml human PD-L1-His (Sino Biological, Cat #10084-H08H) or cynomolgus PD-L1-His (Sino Biological, Cat. 90251-C08H) protein diluted in 1×PBS (GIBCO) overnight at 4° C. Plates were washed three times with 300 μl/well washing buffer (1×PBST, diluted from 20×PBST (Thermo Scientific) with distilled water)) and then blocked with 300 μl/well of blocking buffer (1×PBST/I % BSA) for 2 hours at RT on shaker (100 rpm). Plates were washed and added with 100 μl/well of testing antibodies, which were serial diluted with assay buffer (PBST/1% BSA). The antibodies were incubated at room temperature for 2 hours on plate shaker at 100 rpm. Plates were washed. One hundred microliter of horseradish peroxidase (HRP) conjugated detection antibody was added into each well and incubated at room temperature for 1 hour on plate shaker at 100 rpm. Plates were washed and added with 100 μl/well TMB substrate for color development at room temperature in dark for up to 10 minutes. After addition of 50 μl/well of stop solution (1N H₂SO₄), plates were read at 450 nm on a plate reader (SpectraMax M5).
(§2) Anti-HEL isotype control (Biolntron) was used as negative control.
In general terms: In an ELISA, binding on a coated surface is turned into a signal by an enzyme label.

In experiment [4] the target is T1, human PD-L1-His (Sino Biological, Cat …). The experiment can be described thus: ELISA, coated human PD-L1-His. Here is the method:
as §1, §2

Experiment [5] has as its target T3, cynomolgus PD-L1-His (Sino Biological, …). The experiment can be described thus: BLI (Gator), cynomolgus PD-L1.
The target of experiment [6] is T4, human PD-L1 expressed on cell surface (human, UniProt Q9NZQ7 19-290). As to the kind of experiment: cell-based or functional assay.
For experiment [7], the target named is T4, human PD-L1 expressed on cell surface. As to the kind of experiment: cell-based or functional assay. This is another data set of the same source.
Experiment [8] addresses T1, human PD-L1-His (Sino Biological, Cat …). As to the kind of experiment: competition ELISA (epitope binning): coated human PD-L1-His, antibody pre-incubated, then biotinylated Avelumab (competitor), detection with HRP-avidin.

T3 sequence (Q9NZQ7 other isoform, or with tags, fused parts or gaps C08H C08H limits assumed): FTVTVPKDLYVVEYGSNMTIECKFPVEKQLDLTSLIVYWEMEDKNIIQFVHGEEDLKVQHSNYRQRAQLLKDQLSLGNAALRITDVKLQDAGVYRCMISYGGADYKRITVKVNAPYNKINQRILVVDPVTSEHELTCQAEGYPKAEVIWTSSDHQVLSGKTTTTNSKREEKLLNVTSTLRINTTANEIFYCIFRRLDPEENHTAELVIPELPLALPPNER
T4 sequence (Q9NZQ7 19-290 limits assumed): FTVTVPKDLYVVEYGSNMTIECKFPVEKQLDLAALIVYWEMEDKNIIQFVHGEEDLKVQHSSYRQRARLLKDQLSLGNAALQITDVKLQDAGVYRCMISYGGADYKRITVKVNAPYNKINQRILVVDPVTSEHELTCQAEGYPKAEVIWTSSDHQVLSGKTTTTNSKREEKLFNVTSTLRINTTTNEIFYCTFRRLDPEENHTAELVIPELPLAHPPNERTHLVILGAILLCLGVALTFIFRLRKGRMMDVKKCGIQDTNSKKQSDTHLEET
T2 sequence (Q9NZQ7 19-239 limits assumed): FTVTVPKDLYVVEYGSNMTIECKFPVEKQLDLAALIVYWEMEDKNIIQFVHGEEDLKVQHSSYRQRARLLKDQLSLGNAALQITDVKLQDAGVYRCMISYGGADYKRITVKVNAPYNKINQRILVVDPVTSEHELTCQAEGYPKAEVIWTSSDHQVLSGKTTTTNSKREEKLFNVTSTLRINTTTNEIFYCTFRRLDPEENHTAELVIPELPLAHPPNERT
T1 sequence (Q9NZQ7 19-238): as the sequence (Q9NZQ7 other isoform, or with tags, fused parts or gaps C08H C08H limits assumed) above, with T33A, S34A, N62S, Q68R, R82Q, L173F, A185T, I192T, L215H counted along it

B1: 27A2 (antibody, human IgG1, V domains shown)
VH: QEQLEESGGGLVQPEGSLTLTCTASGFSFSSNHYMSWVRQAPGKGLEWIGSIGVGSGITDYASWAKGRFTISKASSTTLTLQMTTLTAADTAIYFCARWTSGGGGFGLWGPGTLVTVSS
VL: QVLTQTSSPVSAAVGGTVTINCQSSQTIYSDYLFWYQQTPGQPPKLLIYQTSTLASGVPSRFKGSGSGTEFTLTISEIQCDDAATYYCQGYYSGYIWTFGGGTEVVVR
On to B1, for which, in experiment [1], the Kd was 60 pM, the koff is 3.6e-05 s⁻¹ and the kon is 643000 M⁻¹ s⁻¹. The molecule also returned an IC50 in experiment [2] of 1900 pM. The same molecule registered an EC50 in experiment [3] of 11.3 pM. The same molecule registered an EC50 in experiment [4] of 14.6 pM. Further, in experiment [5], the Kd was determined as 30 pM, the dissociation rate constant (koff) was 1.3e-05 s⁻¹ and the kon is 390000 M⁻¹ s⁻¹. In addition, the “IC50 (nM), Promega PD-1/PD-L1 blockade reporter assay” value in experiment [6] stood at 0.23 nM. Besides, in experiment [7], the “IC50 (nM), Promega PD-1/PD-L1 blockade reporter assay, another assay” value (shortened to “IC50 (nM) … another assay”) came out at 0.35 nM.

B2: 56H3 (antibody, human IgG1, V domains shown)
VH: QEQLVESGGGLVQPEGSLTLTCTASEFSFSNNYYMSWVRQAPGKGLEWLGSIGIGSGITDYASWAKGRFTISKASSTTVTLQMTTLTAADTAIYFCARWTSGGGGFGLWGPGTLVTVSS
VL: QVLTQTSSPVSAAVGGTVTINCQSSQTIYSDYLFWYQQKPGQPPKLLIYQTSTLASGVPSRFSGSGSGTQFTLTISGVQCDDAATYYCQGYYSGYIWTFGGGTEVVVN
On to B2, for which, in experiment [1], the Kd came out at 580 pM, the koff worked out at 0.000399 s⁻¹ and the kon came out at 686000 M⁻¹ s⁻¹. Further, the IC50 in experiment [2] is 2100 pM. The concentration giving a half-maximal response (EC50) in experiment [3] turned out to be 7.6 pM. In experiment [4], this molecule registered an EC50 of 17.2 pM. In experiment [5], this molecule showed a Kd of 250 pM, a koff of 8.7e-05 s⁻¹ and a kon of 349000 M⁻¹ s⁻¹. In addition, in experiment [6], the “IC50 (nM), Promega PD-1/PD-L1 blockade reporter assay” value worked out at 0.36 nM. Further, the “IC50 (read off the curve)” value in experiment [8] was approximately 0.1 µg/mL.

B3: 74A9 (antibody, human IgG1, V domains shown)
VH: QSVEESGGRLVTPGTPLTLTCAVSGFSLSTYALGWVRQAPGKGLEWIGSISIGGATYYASWAKGRFTISKTSTTVDLKIASPTTEDTATYFCARNVDSIYLDAFHTWGPGTLVTVSL
VL: DIVMTQTPASVEAAVGGTVTIKCQASQNIYNNLAWYQQKPGQPPKLLIYRASTLASGVPSRFKGSGSGTEYTLTISDLECDDAATYYCQTYYLTTTTNAFGGGTEVVVK
Turning to B3, in experiment [1], the Kd was 360 pM, the koff was 0.000234 s⁻¹ and the kon is 643000 M⁻¹ s⁻¹. In addition, in experiment [2], the IC50 worked out at 2300 pM. This molecule registered an EC50 in experiment [3] of 19.8 pM. Further, in experiment [4], a half-maximal response (EC50) required 22.9 pM. Further, in experiment [5], the Kd came to 3090 pM, the koff was determined as 0.000915 s⁻¹ and the kon was found to be 296000 M⁻¹ s⁻¹. Moreover, the “IC50 (nM), Promega PD-1/PD-L1 blockade reporter assay” value in experiment [6] stood at 0.29 nM. In addition, the “IC50 (nM) … another assay” value in experiment [7] was determined as 0.46 nM.

B4: 28B3 (antibody, human IgG1, V domains shown)
VH: QSVEESGGRLVTPGTPLTLSCTASGFSLSSYYMIWVRQAPGKGLEYIGYVYTGSGNTWYASWAKGRFAISKASTTVDLMITSPTTEDTATYFCASGADGVYDWGWDIWGPGTLVTVSL
VL: DIVMTQTPASVEAAVGDTVTIKCQASQSIYSLLAWYQQKPGQRPKLLIAGASNLESGVPSRFSGSGSGTEYTLTISALECADAATYYCQNNYDSGRIYGLAFGGGTEVVVK
Take B4: the Kd was determined as 90 pM in experiment [1] and 330 pM in experiment [5]. Further, the koff amounted to 7.6e-05 s⁻¹ in experiment [1] and 0.000132 s⁻¹ in experiment [5]. Further, the kon in experiment [1] came to 810000 M⁻¹ s⁻¹; in experiment [5] it was 403000 M⁻¹ s⁻¹. In experiment [2], this molecule displayed a concentration for half-maximal inhibition (IC50) of 1500 pM. Also, the EC50 is 17.7 pM in experiment [3] and 15.9 pM in experiment [4]. Besides, in experiment [6], the “IC50 (nM), Promega PD-1/PD-L1 blockade reporter assay” value came out at 0.24 nM. Moreover, the “IC50 (nM) … another assay” value in experiment [7] amounted to 0.33 nM.
